Source: US20200071380A1, “COMBINATION THERAPIES COMPRISING SIRP ALPHA-BASED CHIMERIC PROTEINS” (Shattuck Labs, Inc., priority 2018, published 2020)

How the values were obtained:
[1] = target: recombinant mouse CD47 and CD40 (Mus musculus, UniProt P27512+Q61735); experiment: Dual functional ELISA of the murine surrogate; assay type: binding
[2] = target: T1, murine CD40 (Mus musculus, UniProt P27512); experiment: Murine CD40/NFκB-luciferase reporter in CHOK1 cells; assay type: cell-based
T1 construct: expressed in transfected cells; host or cells: CHO-K1
T1 sequence (P27512 20-289): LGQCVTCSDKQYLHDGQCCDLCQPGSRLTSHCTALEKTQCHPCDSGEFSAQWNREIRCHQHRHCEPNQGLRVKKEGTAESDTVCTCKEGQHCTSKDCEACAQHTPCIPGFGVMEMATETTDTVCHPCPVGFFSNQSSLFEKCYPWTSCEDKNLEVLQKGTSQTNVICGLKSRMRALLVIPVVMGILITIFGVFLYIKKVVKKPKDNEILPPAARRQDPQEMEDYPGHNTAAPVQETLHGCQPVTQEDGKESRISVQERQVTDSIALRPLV
Method: Cells were cultured with a dose titration of recombinant human CD40L-his or SIRPα-Fc-CD40L, and luminescence was read on a luminometer after 6 hours. The left histograms are (−) Control, middle histograms are hCD40L-His and the right histograms are SIRPα-Fc-CD40L. […] CD8-depleted PBMC from 33-50 distinct human donors were cultured with media only, the neoantigen positive control KLH, the clinical stage non-activating control Exenatide, or 0.3, 3, 30, or 300 nM of SIRPα-Fc-CD40L. At 10 μg/ml on the X-axis, the samples are, top to bottom: hCD40L-Fc, SIRPα-Fc-CD40L, ahCD40 (HB14) ad (−) Control. […] The left histograms are (−) control, second from left are FC-mCD40L, second from right are anti-mCD40 (FGK4.5) and right are mSIRPα-Fc-CD40L.
The murine version of the CD40/NFκB-luciferase system was established in CHOK1 cells.

[3] = tested on: A20 lymphoma; experiment: Murine phagocytosis assay, BMDMs with A20 lymphoma cells; assay type: cell-based
[4] = tested on: WEHI3 leukemia cells; experiment: Murine phagocytosis assay, BMDMs with WEHI3 leukemia cells; assay type: cell-based
[5] = tested on: splenic dendritic cells; experiment: In vivo splenic dendritic cell activation; design: species or system mice; conditions: single IV dose; 6 or 24 hours, especially the 24 hour time point
Method: For each panel, the samples are (left to right): untreated, sheep RBCs, αCD47 (MIAP301), αSIRPα (P84), mSIRPα-Fc-CD40L, mSIRPα-Fc-CD40L (24 Hrs), and αCD47 (MIAP301) (24 hrs). FIG. 9B is a quantitation of in vivo dendritic cell activation corresponding to FIG. 9A. Shown is the absolute percent of CD4+ and CD8+ dendritic cells; also gated on CD11c and DC1R2. In FIG. 9B, for each panel, the samples are (left to right): untreated, sheep RBCs, αCD47 (MIAP301), αSIRPα (P84), SIRPα-Fc-CD40L (150 μg), SIRPα-Fc-CD40L (300 μg), SIRPα-Fc-CD40L (300 μg) (24 Hrs), and αCD47 (MIAP301) (24 hrs).
An in vivo assay to examine SIRPα/CD47 function in mice was describe in Yi et al., “Splenic Dendritic Cells Survey Red Blood Cells for Missing Self-CD47 to Trigger Adaptive Immune Responses. Immunity. 2015;43(4):764-75) (the contents of which is incorporated by reference in its entirety). This assay detects the activation status of splenic dendritic cells in response to SIRPa/CD47 inhibitors or to infused sheep red blood cells (RBC).
After 6 or 24 hours, mice were euthanized and their spleens excised, dissociated, and assessed by flow cytometry for populations of activated CD4+ dendritic cells (DCs) (FIG. 9A, left panel) or CD8+dendritic cells (FIG. 9A, right panel); both populations of dendritic cells were also positive for MHC II (I-Ab), CD11c, and DC1R2.

[6] = tested on: CT26 tumors; experiment: Syngeneic CT26 colon tumor model versus CD40/CD47 antibodies (Example 11); assay type: in vivo, mice
Method: FIG. 20C: a similar CT26 experiment was initiated as described in FIG. 20A above, however mice were pre-treated on days −1, 1, and 10 with IP injections of 100 μg of either or both CD4/CD8 depleting antibodies. Mice were inoculated with CT26 tumors on day 0 and treated at a later starting date than FIG. 20A with mSIRPα-Fc-CD40L ARC on days 7, 9, and 11. […] In FIG. 20D and FIG. 20E, BALB/C mice were inoculated with WEHI3 tumors (FIG. 20D) or A20 tumors (FIG. 20E) subcutaneously on the rear flank, and then treated via IP injection with anti-CD20 or mSIRPα-Fc-CD40L on days 7, 9, and 11 (WEHI3) or days 10, 12, and 14 (A20); when tumors were established and reached approximately 57-60 mm^3. A cohort of mice were pre-treated with an interferon alpha receptor 1 (IFNAR1) blocking antibody ([…] by IP injection) on days -1, 1, and 10 (WEHI3) or on days −1, 1, and 13 (A20). FIG. 20F to FIG. 20H are graphs showing blockade of CD4, CD8, and IFNAR1. Peripheral blood analysis by flow cytometry of CD4 (FIG. 20F), CD8 (FIG. 20G), and IFNAR1 (FIG. 20H) depletion following depleting antibody treatment corresponding to FIG. 20C to FIG. 20E. Samples were normalized to untreated animals.
Implanted CT26 tumors were allowed to grow to ˜30 mm^3 before treatment was initiated with a fixed regimen of two doses of either a CD40 agonist antibody (clone FGK4.5), a CD47 blocking antibody (clone MIAP301), a combination of the two antibodies, or the murine SIRPα-Fc-CD40L chimeric protein. […] Based on this observation, these experiments were repeated in the setting of antibody-mediated depletion of both CD4+ and CD8+ cells (FIG. 20C).
CD4 and CD8 depletion was verified in the peripheral blood at multiple time points during the experiment (see, FIG. 20F and FIG. 20G).

[7] = tested on: peripheral blood cell populations; experiment: Peripheral blood cell populations in treated mice; assay type: in vivo
Method: FIG. 22B is a graph showing RBCs and test agents that were incubated at 37° C. for 24 hours and then the media was assessed at OD490 for changes in absorbance due to hemoglobin being released from lysing RBCs. […] FIG. […] Cell populations were assessed by flow cytometry and included CD20+ B cells, CD110+, CD4+/CD11c+, and CD8+/CD11c+ dendritic cells.
Receptor occupancy was evaluated on circulating CD40+ lymphocytes.

B1: mSIRPα-Fc-CD40L: Murine version of SIRPα-Fc-CD40L, made from murine proteins to assess activity in vivo (protein)
chain: KELKVTQPEKSVSVAAGDSTVLNCTLTSLLPVGPIRWYRGVGPSRLLIYSFAGEYVPRIRNVSDTTKRNNMDFSIRISNVTPADAGIYYCVKFQKGSSEPDTEIQSGGGTEVYVLAKPSPPEVSGPADRGIPDQKVNFTCKSHGFSPRNITLKWFKDGQELHPLETTVNPSGKNVSYNISSTVRVVLNSMDVNSKVICEVAHITLDRSPLRGIANLSNFIRVSPTVKVTQQSPTSMNQVNLTCRAERFYPEDLQLIWLENGNVSRNDTPKNLTKNTDGTYNYTSLFLVNSSAHREDVVFTCQVKHDQQPAITRNHTVLGFAHSSDQGSMQTFPDNNATHNWNVPRDCGCKPCICTVPEVSSVFIFPPKPKDVLTITLTPKVTCVVVDISKDDPEVQFSWFVDDVEVHTAQTQPREEQFNSTFRSVSELPIMHQDWLNGKEFKCRVNSAAFPAPIEKTISKTKGRPKAPQVYTIPPPKEQMAKDKVSLTCMITDFFPEDITVEWQWNGQPAENYKNTQPIMNTNGSYFVYSKLNVQKSNWEAGNTFTCSVLHEGLHNHHTEKSLSHSPGKHRRLDKVEEEVNLHEDFVFIKKLKRCNKGEGSLSLLNCEEMRRQFEDLVKDITLNKEEKKENSFEMQRGDEDPQIAAHVVSEANSNAASVLQWAKKGYYTMKSNLVMLENGKQLTVKREGLYYVYTQVTFCSNREPSSQRPFIVGLWLKPSSGSERILLKAANTHSSSQLCEQQSVHLGGVFELQAGASVFVNVTEASQVIHRVGFSSFGLLKL
In the case of B1, the “simultaneous binding to recombinant mouse CD47 and CD40” value [1] is reported as “simultaneous binding”, the “activation of the NFκB pathway, murine CD40 reporter” value [2] is reported as “consistently stimulated potent activation of the NFκB pathway” and the phagocytic activity [3] is reported as “induced strong phagocytic activity”. The “phagocytosis index compared with CD47 blocking antibody” value [3] was “higher phagocytosis index than the CD47 blocking antibody”, the phagocytic activity [4] was “induced strong phagocytic activity” and the “phagocytosis index compared with CD47 blocking antibody” value [4] was “higher phagocytosis index than the CD47 blocking antibody”. For the same molecule, the “splenic CD4+ and CD8α+ DCs expressing high levels of MHCII, CD80, and CD86” value [5] was “greatly upregulated splenic CD4+ and CD8α+ DCs”, the “rejection of a secondary tumor challenge among mice that rejected the primary tumor” value ([6]; no additional treatment) was 60% and the “mice rejecting primary tumors” value ([6]; two doses, treatment started at ˜30 mm^3) was 62%. The “tumor growth / survival” value ([6]; two doses, treatment started at ˜30 mm^3, versus vehicle controls) was “significant prolongation in tumor growth and survival”, the “overall CD45+ peripheral lymphocytes” value ([7]; 24 hours following a single IP injection (300 μg)) was “decrease in overall CD45+ peripheral lymphocytes” and the “CD8+ dendritic cells in peripheral blood” value ([7]; mice) was “significant increase in CD8+ dendritic cells”. For the same molecule, the “CD40+ B cells in peripheral blood” value ([7]; mice) was “peripheral decrease in CD40+ B cells”.
